To fix the notation:
T1: recombinant Factor VIII (CSL627, rVIII-SingleChain) (Homo sapiens (Human), UniProt P00451 20-2351)
T1 construct: also called FVIII
T1 sequence: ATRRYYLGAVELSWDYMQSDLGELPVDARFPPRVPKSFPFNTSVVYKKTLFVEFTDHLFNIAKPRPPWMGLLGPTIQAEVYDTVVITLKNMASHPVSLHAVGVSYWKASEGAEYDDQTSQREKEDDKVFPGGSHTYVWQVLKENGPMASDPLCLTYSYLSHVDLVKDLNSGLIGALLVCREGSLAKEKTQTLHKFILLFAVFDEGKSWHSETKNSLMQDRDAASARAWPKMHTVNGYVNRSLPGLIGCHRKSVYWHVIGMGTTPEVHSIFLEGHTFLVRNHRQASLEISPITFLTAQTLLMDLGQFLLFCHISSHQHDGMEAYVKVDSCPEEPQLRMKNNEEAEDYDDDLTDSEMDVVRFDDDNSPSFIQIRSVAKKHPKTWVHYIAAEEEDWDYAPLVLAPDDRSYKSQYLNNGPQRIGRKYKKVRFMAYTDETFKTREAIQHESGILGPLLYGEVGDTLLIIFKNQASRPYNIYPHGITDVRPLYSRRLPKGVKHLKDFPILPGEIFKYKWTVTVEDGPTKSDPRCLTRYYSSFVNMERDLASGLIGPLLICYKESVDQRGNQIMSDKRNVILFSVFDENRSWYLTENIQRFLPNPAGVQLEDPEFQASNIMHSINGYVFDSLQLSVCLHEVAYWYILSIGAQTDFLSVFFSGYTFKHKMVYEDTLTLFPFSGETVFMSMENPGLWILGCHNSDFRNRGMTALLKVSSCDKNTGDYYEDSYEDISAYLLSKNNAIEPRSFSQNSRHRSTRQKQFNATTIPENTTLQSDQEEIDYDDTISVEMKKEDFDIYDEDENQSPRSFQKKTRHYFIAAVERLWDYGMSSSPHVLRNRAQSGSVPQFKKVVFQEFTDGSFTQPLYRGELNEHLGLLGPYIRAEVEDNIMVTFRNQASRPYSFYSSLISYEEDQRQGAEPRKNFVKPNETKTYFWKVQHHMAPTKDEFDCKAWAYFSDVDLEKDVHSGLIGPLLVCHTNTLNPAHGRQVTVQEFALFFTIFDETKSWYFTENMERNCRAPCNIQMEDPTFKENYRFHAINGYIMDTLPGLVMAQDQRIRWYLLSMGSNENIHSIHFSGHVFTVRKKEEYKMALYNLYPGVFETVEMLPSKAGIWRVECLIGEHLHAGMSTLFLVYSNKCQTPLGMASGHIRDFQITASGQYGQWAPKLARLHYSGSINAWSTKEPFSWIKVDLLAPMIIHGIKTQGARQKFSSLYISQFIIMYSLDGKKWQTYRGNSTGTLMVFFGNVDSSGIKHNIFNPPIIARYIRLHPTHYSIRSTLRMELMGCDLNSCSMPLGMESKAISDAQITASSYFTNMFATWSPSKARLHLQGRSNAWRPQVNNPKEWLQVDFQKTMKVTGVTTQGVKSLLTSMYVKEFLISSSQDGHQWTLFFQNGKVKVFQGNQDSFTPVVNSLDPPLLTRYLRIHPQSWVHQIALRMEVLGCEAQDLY

B1: Hu-vWF[764-1270]-8His S764P-L765H (other)
chain: PHSCRPPMVKLVCPADNLRAEGLECTKTCQNYDLECMSMGCVSGCLCPPGMVRHENRCVALERCPCFHQGKEYAPGETVKIGCNTCVCRDRKWNCTDHVCDATCSTIGMAHYLTFDGLKYLFPGECQYVLVQDYCGSNPGTFRILVGNKGCSHPSVKCKKRVTILVEGGEIELFDGEVNVKRPMKDETHFEVVESGRYIILLLGKALSVVWDRHLSISVVLKQTYQEKVCGLCGNFDGIQNNDLTSSNLQVEEDPVDFGNSWKVSSQCADTRKVPLDSSPATCHNNIMKQTMVDSSCRILTSDVFQDCNKLVDPEPYLDVCIYDTCSCESIGDCACFCDTIAAYAHVCAQHGKVVTWRTATLCPQSCEERNLRENGYECEWRYNSCAPACQVTCQHPEPLACPVQCVEGCHAHCPPGKILDELLQTCVDPEDCPVCEVAGRRFASGKKVTLNPSDPEHCQICHCDVVNLTCEACQEPGGLVVPPTDAPVSPTTLYVEDISEPPLHDFHHHHHHHH
B2: Hu-vWF[764-1270]-8His S764P-L765M (other)
chain: PMSCRPPMVKLVCPADNLRAEGLECTKTCQNYDLECMSMGCVSGCLCPPGMVRHENRCVALERCPCFHQGKEYAPGETVKIGCNTCVCRDRKWNCTDHVCDATCSTIGMAHYLTFDGLKYLFPGECQYVLVQDYCGSNPGTFRILVGNKGCSHPSVKCKKRVTILVEGGEIELFDGEVNVKRPMKDETHFEVVESGRYIILLLGKALSVVWDRHLSISVVLKQTYQEKVCGLCGNFDGIQNNDLTSSNLQVEEDPVDFGNSWKVSSQCADTRKVPLDSSPATCHNNIMKQTMVDSSCRILTSDVFQDCNKLVDPEPYLDVCIYDTCSCESIGDCACFCDTIAAYAHVCAQHGKVVTWRTATLCPQSCEERNLRENGYECEWRYNSCAPACQVTCQHPEPLACPVQCVEGCHAHCPPGKILDELLQTCVDPEDCPVCEVAGRRFASGKKVTLNPSDPEHCQICHCDVVNLTCEACQEPGGLVVPPTDAPVSPTTLYVEDISEPPLHDFHHHHHHHH
B3: Hu-vWF[764-1270]-8His S764P-L765I (other)
chain: PISCRPPMVKLVCPADNLRAEGLECTKTCQNYDLECMSMGCVSGCLCPPGMVRHENRCVALERCPCFHQGKEYAPGETVKIGCNTCVCRDRKWNCTDHVCDATCSTIGMAHYLTFDGLKYLFPGECQYVLVQDYCGSNPGTFRILVGNKGCSHPSVKCKKRVTILVEGGEIELFDGEVNVKRPMKDETHFEVVESGRYIILLLGKALSVVWDRHLSISVVLKQTYQEKVCGLCGNFDGIQNNDLTSSNLQVEEDPVDFGNSWKVSSQCADTRKVPLDSSPATCHNNIMKQTMVDSSCRILTSDVFQDCNKLVDPEPYLDVCIYDTCSCESIGDCACFCDTIAAYAHVCAQHGKVVTWRTATLCPQSCEERNLRENGYECEWRYNSCAPACQVTCQHPEPLACPVQCVEGCHAHCPPGKILDELLQTCVDPEDCPVCEVAGRRFASGKKVTLNPSDPEHCQICHCDVVNLTCEACQEPGGLVVPPTDAPVSPTTLYVEDISEPPLHDFHHHHHHHH
B4: Hu-vWF[764-1270]-8His S764P-L765P (other)
chain: PPSCRPPMVKLVCPADNLRAEGLECTKTCQNYDLECMSMGCVSGCLCPPGMVRHENRCVALERCPCFHQGKEYAPGETVKIGCNTCVCRDRKWNCTDHVCDATCSTIGMAHYLTFDGLKYLFPGECQYVLVQDYCGSNPGTFRILVGNKGCSHPSVKCKKRVTILVEGGEIELFDGEVNVKRPMKDETHFEVVESGRYIILLLGKALSVVWDRHLSISVVLKQTYQEKVCGLCGNFDGIQNNDLTSSNLQVEEDPVDFGNSWKVSSQCADTRKVPLDSSPATCHNNIMKQTMVDSSCRILTSDVFQDCNKLVDPEPYLDVCIYDTCSCESIGDCACFCDTIAAYAHVCAQHGKVVTWRTATLCPQSCEERNLRENGYECEWRYNSCAPACQVTCQHPEPLACPVQCVEGCHAHCPPGKILDELLQTCVDPEDCPVCEVAGRRFASGKKVTLNPSDPEHCQICHCDVVNLTCEACQEPGGLVVPPTDAPVSPTTLYVEDISEPPLHDFHHHHHHHH

The target of the assay is T1, recombinant Factor VIII (CSL627, …). In words: SPR, anti-His capture. The method, then: Binding kinetics were investigated by surface plasmon resonance using a Biacore 4000 biosensor at 37° C. Each mutant was captured from cell culture medium to a density of 40-150 RU on a CM-5 sensor chip pre-immobilised with anti-His antibody (14,000 RU). In an initial screening study, FVIII was injected over the captured mutants for 5 minutes at 1 nM and dissociation monitored for 5 minutes.
All sensorgrams were double referenced by subtraction of signals from a reference spot (containing only immobilised anti His antibody) and from a blank injection. Binding kinetics were determined by fitting the double referenced sensorgrams to a 1:1 kinetic model.
(In SPR one partner is held on a chip, and binding of the other changes the refractive index at the surface.)
By Kd is commonly meant the free concentration of one partner at which half of the binding sites on the other are occupied at equilibrium, for simple one-to-one binding. Broadly, the koff is the rate constant with which the complex falls apart. Usually kon stands for the rate constant with which the complex forms. As for B1, the Kd was 0.555 nM, the koff turned out to be 0.00642 s⁻¹ and the on-rate constant (kon) amounted to 1.16e+07 M⁻¹ s⁻¹.

Turning to B2, the Kd is 0.0243 nM, the koff was 0.000237 s⁻¹ and the kon worked out at 9.76e+06 M⁻¹ s⁻¹.

As to B3, the Kd was 0.0118 nM, the koff was 9.52e-05 s⁻¹ and the on-rate (kon) is 8.08e+06 M⁻¹ s⁻¹.

On to B4, for which the Kd was found to be 0.0238 nM, the koff was 0.000242 s⁻¹ and the kon turned out to be 1.02e+07 M⁻¹ s⁻¹.

These data come from patent US20190015483A1 (CSL BEHRING RECOMBINANT FACILITY, published 2019).
